Source: article PMC9889962

target: recombinant human FcγRI receptor (CD64) (UniProt P12314); assay: SPR; conditions: immobilized human FcγRI (CD64); parent: est. 100; read off a plot
Sequence (P12314 16-374): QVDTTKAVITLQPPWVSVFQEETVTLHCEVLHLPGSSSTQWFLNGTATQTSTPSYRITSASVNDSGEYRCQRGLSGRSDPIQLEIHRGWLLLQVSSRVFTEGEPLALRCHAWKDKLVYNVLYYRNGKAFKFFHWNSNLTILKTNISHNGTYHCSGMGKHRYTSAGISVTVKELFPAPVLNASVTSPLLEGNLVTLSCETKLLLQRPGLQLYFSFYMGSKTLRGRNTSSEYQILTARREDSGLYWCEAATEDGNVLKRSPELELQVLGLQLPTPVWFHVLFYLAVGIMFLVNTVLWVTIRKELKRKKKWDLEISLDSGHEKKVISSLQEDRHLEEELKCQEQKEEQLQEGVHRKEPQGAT

Substance	percent of parent
IgG1 (control) DAPA	34%
IgG1 (control) Sigma	3.5%
IgG1 (control) LGGR	6%
IgG1 (control) LAGA	8.5%
IgG1 (control) Agly	24%
IgG1 (control) LALAKA	26%
IgG1 (control) LALA	27%
IgG1 (control) FES	21%
IgG1 (control) FQQ	32%
IgG1 (control) LALE	8%
